# Results as given in patent US20240270866A1 (Alector, published 2024).
# Positions count from the first letter of the chain named.
# B1: SA-19-74 (antibody, V domains shown)
# VH: QVQLVESGGGVVQPGRSLRLSCAASGFAFSSYAMHWVRQAPGKGLEWVAGILYDGSNKYYADSVKGRFTISRDNSKNTLYLQMNSLRAEDTAVYYCARHSQKYTLGFAFDIWGQGTMVTVSS
# VL: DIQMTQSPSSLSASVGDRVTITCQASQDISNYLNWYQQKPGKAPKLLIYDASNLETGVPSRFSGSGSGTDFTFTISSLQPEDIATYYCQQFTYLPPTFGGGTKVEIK
# notes: IgG
# B2: SA-19-75 (antibody, V domains shown)
# VH: B1 VH with A28T, A33G, G50V, L52A, Y59L, R98L, H99M, S100R, Q101T
# VL: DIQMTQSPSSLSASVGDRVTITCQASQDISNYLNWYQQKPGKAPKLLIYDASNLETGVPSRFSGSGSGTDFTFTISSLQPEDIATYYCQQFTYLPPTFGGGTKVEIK
# notes: IgG
# B3: SA-19-76 (antibody, V domains shown)
# VH: QVQLVESGGGVVQPGRSLRLSCAASGFTFSSYGMHWVRQAPGKGLEWVAVIAYDGSNKLYADSVKGRFTISRDNAKNSLYLQMNSPRAEDTAVYYCATMRTKYTLGFAFDIWGQGTMVTVSS
# VL: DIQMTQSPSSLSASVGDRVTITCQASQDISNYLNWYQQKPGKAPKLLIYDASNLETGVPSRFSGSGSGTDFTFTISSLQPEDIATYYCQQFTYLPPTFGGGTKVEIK
# notes: IgG
# B4: SA-19-77 (antibody, V domains shown)
# VH: B1 VH with A28T, A33G, H35A, G50Q, K58E, H99D, S100L, Q101T
# VL: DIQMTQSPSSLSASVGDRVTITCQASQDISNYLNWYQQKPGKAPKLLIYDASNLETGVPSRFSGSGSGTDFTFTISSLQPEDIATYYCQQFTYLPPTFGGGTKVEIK
# notes: IgG
# B5: SA-19-78 (antibody, V domains shown)
# VH: B3 VH with A75S, S78T, N84D, P86L, M99S, R100D
# VL: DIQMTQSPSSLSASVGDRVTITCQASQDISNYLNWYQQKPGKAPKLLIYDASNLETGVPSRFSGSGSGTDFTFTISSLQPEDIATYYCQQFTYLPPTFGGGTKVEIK
# notes: IgG
# B6: SA-19-79 (antibody, V domains shown)
# VH: B3 VH with L59I, A75S, S78T, P86L, M99T, R100D
# VL: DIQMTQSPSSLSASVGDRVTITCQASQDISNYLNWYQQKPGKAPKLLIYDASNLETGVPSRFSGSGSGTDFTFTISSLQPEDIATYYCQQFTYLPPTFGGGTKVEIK
# notes: IgG
# B7: SA-19-80 (antibody, V domains shown)
# VH: B1 VH with Q1E, V5L, A28T, A33G, N84D, S85G, Q101V
# VL: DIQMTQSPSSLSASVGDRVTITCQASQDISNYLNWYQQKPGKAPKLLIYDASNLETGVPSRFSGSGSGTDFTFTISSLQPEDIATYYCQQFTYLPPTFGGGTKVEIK
# notes: IgG
# B8: SA-19-81 (antibody, V domains shown)
# VH: B3 VH with F29S, A75S, S78T, P86L, T98R, M99T, R100P
# VL: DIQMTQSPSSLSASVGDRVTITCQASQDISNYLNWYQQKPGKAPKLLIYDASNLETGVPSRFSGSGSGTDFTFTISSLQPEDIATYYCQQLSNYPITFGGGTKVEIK
# notes: IgG
# B9: SA-19-82 (antibody, V domains shown)
# VH: B1 VH with A28T, S100V, Q101L
# VL: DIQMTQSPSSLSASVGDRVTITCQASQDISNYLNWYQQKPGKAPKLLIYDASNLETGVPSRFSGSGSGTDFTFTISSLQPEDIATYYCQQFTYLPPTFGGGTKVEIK
# notes: IgG
# B10: SA-19-83 (antibody, V domains shown)
# VH: B1 VH with A28T, S30D, A33L, G50S, L52I, R98S, H99V, S100R, Q101T
# VL: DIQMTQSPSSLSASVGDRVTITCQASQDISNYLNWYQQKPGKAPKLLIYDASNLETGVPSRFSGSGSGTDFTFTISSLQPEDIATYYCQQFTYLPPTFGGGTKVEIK
# notes: IgG
# B11: SA-19-84 (antibody, V domains shown)
# VH: B3 VH with A75S, S78T, P86L, T98R, M99T, R100Q, T101L
# VL: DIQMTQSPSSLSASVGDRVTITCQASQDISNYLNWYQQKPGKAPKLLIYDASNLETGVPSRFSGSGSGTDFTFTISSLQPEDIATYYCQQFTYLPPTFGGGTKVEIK
# notes: IgG
# B12: SA-8-66 (antibody, V domains shown)
# VH: QVQLVESGGGVVQPGRSLRLSCAASGFTFSSYGMHWVRQAPGKGLEWVAVINGDGSNKYYADSVKGRFTISRDNSKNTLYLQMNSLRAEDTAVYYCAKEPRSYWHGYGMDVWGQGTTVTVSS
# VL: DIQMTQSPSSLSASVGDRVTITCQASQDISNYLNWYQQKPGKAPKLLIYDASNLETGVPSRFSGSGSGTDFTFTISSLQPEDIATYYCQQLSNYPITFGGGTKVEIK
# notes: IgG
# B13: SA-5-61 (antibody, V domains shown)
# VH: EVQLLESGGGLVQPGGSLKLSCAASGFTFDSYAMSWVRQAPGKGLEWVSAISGSGGSTYYADSVKGRFTISRDNSKNTLYLQMNSLRAEDTAVYYCAKDTGIDFWGQYPPYFDLWGRGTLVTVSS
# VL: DIQLTQSPSSVSASVGDRVTITCRASQDISSWLAWYQQKPGKAPKLLIYAASSLQSGVPSRFSGSGSGTDFTLTISSLQPEDFATYYCQQGYIFPRTFGGGTKVEIK
# notes: IgG
# B14: SA-5-57 (antibody, V domains shown)
# VH: EVQLLESGGGLVQPGGSLRLSCAASGFTFDSYAMSWVRQAPGKGLEWVSATSGGGGSTYHADPVKGRFTISRDNSKNTLYLQMNSLRAEDTAVYYCAKDITDDFWSVTPPYFDLWGRGTLVTVSS
# VL: B13 VL
# notes: IgG
# B15: SA-5-58 (antibody, V domains shown)
# VH: B13 VH with K19R, Y60H, D103S, F104L, G106S, Q107V, Y108T
# VL: B13 VL
# notes: IgG
# B16: SA-5-59 (antibody, V domains shown)
# VH: B13 VH with K19R, S31N, K43E, I51V, K65R, N84D, G106A, Q107R, Y108T
# VL: B13 VL
# notes: IgG
# B17: SA-8-62 (antibody, V domains shown)
# VH: QVQLVESGGGLVKPGGSLRLSCAASGFTFSSYSMHWVRQAPGKGLEWVSSISSSDSWIYYADSVKGRFTISRDNAKNSLYLQMDSLRAEDTAVYYCAKERVDYWHGYGMDVWGQGTTVTVSS
# VL: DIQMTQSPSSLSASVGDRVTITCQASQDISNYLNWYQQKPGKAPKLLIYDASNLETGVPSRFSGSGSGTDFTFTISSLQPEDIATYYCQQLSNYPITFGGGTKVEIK
# notes: IgG
# B18: SA-8-64 (antibody, V domains shown)
# VH: B17 VH with D84N, R100P, V101R, D102S
# VL: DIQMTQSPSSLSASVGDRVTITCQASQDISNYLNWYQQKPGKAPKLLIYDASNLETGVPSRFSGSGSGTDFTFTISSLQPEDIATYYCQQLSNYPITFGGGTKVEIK
# notes: IgG
# B19: SA-8-67 (antibody, V domains shown)
# VH: B17 VH with Q1E, D55P, W57H, D84N, R100P, V101R, D102S
# VL: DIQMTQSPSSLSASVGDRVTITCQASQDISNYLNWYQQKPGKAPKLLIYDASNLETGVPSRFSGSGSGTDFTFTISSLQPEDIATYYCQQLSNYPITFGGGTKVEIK
# notes: IgG
# B20: SA-13-68 (antibody, V domains shown)
# VH: EVQLLESGGGLVQPGGSLRLSCAASGFTFTEYAMSWVRQAPGKRLEWVSAISGSGGSTYYADSVKGRFTISRDNSKNTLYLQMSSLRAEDTAVYYCARDNIQWGPHFYWGQGTLVTVSS
# VL: B13 VL with L4M, V11L, D28S, W32Y, A34N, F94Y, R96P
# notes: IgG
# B21: SA-56-85 (antibody, V domains shown)
# VH: EVQLLESGGGVVQPGRSLGLSCAASGSTFSYYGMSWVRQAPGKGLEWVASIWVDGSNKYYADSVKGRFTISRDNSKSTLYLQMNSLRAEDTAVYYCARGVETYSGPNWFDPWGQGTLVTVSS
# VL: B13 VL with L4M, D28G, G91A, Y92I, I93Y, R96I, I106N, K107Q
# notes: IgG; also called SA-85
# B22: SA-56-86 (antibody, V domains shown)
# VH: B21 VH with E1Q, L5V, R16G, G19R, S27F, N57S, S77N
# VL: B13 VL with L4M, D28G, G91A, Y92I, I93Y, R96I
# notes: IgG
# B23: SA-56-87 (antibody, V domains shown)
# VH: B21 VH with L5V, G19R, S27F, S77N, R98F, V100L
# VL: B13 VL with L4M, D28G, G91A, Y92I, I93Y, R96I
# notes: IgG
# B24: SA-56-88 (antibody, V domains shown)
# VH: B21 VH with L5V, G19R, S27F, V64A, S77N, R98E, V100K
# VL: B13 VL with L4M, D28G, G91A, Y92I, I93Y, R96I
# notes: IgG
# B25: SA-56-89 (antibody, V domains shown)
# VH: B21 VH with L5V, R16G, G19R, S27F, I70V, S77N, N84D
# VL: B13 VL with L4M, D28G, G91A, Y92I, I93Y, R96I
# notes: IgG; also called SA-89
# B26: SA-56-90 (antibody, V domains shown)
# VH: B21 VH with E1Q, L5V, G19R, Y31H, S77N, N84D
# VL: B13 VL with L4M, D28G, G91A, Y92I, I93Y, R96I
# notes: IgG; also called SA-90
# B27: SA-56-91 (antibody, V domains shown)
# VH: B21 VH with L5V, G19R, S27F, S30A, Y31H, S35A, S77N, R98T, G99A
# VL: B13 VL with L4M, D28G, G91A, Y92I, I93Y, R96I
# notes: IgG
# B28: SA-56-92 (antibody, V domains shown)
# VH: B21 VH with L5V, G19R, S27F, S77N, N84D, R98T
# VL: B13 VL with L4M, D28G, G91A, Y92I, I93Y, R96I
# notes: IgG
# B29: SA-56-93 (antibody, V domains shown)
# VH: B21 VH with G19R, S27F, S77N, T78A, R98V, G99S, V100R
# VL: B13 VL with L4M, D28G, G91A, Y92I, I93Y, R96I
# notes: IgG
# B30: SA-56-95 (antibody, V domains shown)
# VH: EVQLLESGGGVVQPGRSLRLSCAASGFTFAHYGMAWVRQAPGKGLEWVAVIWVDGSPKYYADSVKGRFTISRDNSKNTLYLQMNSLRAEDTAVYYCAVARETYSGPNWFDPWGQGTLVTVSS
# VL: B13 VL with L4M, D28G, G91A, Y92I, I93Y, R96I
# notes: IgG
# B31: SA-56-96 (antibody, V domains shown)
# VH: B30 VH with A30S, H31S, G33A, A35G, P57L, V98T, A99G
# VL: B13 VL with L4M, D28G, G91A, Y92I, I93Y, R96I
# notes: IgG
# B32: SA-56-94 (antibody, V domains shown)
# VH: B21 VH with L5V, G19R, S27F, S77N, R98V, V100T
# VL: B13 VL with L4M, D28G, G91A, Y92I, I93Y, R96I
# notes: IgG; also called SA-94
# B33: SA-8-64 Fab (Fab, V domains shown)
# VH: B17 VH with D84N, R100P, V101R, D102S
# VL: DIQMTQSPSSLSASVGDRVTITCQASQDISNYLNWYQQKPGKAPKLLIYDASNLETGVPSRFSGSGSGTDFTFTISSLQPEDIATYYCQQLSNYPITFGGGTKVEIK
# notes: papain Fab
# B34: SA-8-62 Fab (Fab, V domains shown)
# VH: B17 VH
# VL: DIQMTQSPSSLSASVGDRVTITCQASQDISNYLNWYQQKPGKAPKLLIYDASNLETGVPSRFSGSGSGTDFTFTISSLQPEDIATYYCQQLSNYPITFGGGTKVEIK
# notes: papain Fab
# B35: SA-8-67 Fab (Fab, V domains shown)
# VH: B17 VH with Q1E, D55P, W57H, D84N, R100P, V101R, D102S
# VL: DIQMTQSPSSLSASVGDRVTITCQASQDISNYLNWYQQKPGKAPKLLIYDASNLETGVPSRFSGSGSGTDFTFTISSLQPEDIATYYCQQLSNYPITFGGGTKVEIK
# notes: papain Fab
# B36: SA-13-68 Fab (Fab, V domains shown)
# VH: B20 VH
# VL: B13 VL with L4M, V11L, D28S, W32Y, A34N, F94Y, R96P
# notes: papain Fab
# Biological target: T1, human SIRPA Fc fusion antigen (human, UniProt P78324 31-373)
# T1 construct: heterologous signal peptide; not shown: human IgG1 Fc
# Assay: ForteBio IgG avid;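 further: ForteBio sensor-based avid binding of anti-SIRPA antibodies in IgG format, with the binding partner in solution at 100 nM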
# Protocol: The affinities of the anti-SIRPA antibodies were determined by measuring KD values by ForteBio and MSD. […] Briefly, ForteBio affinity measurements were performed by loading immunoglobulins (IgGs) on-line onto AHQ sensors. Sensors were equilibrated off-line in assay buffer for 30 min and then monitored on-line for 60 seconds for baseline establishment. For avid binding measurement, sensors with loaded IgGs were exposed to 100 nM antigen (human SIRPA or SIRPβ1 Fc fusion) for 3 min, afterwards they were transferred to assay buffer for 3 min for off-rate measurement. Additional avid binding was determined by loading biotinylated SIRPA monomer on SA sensors and exposure to 100 nM IgG in solution. Monovalent binding measurements were obtained by loading human SIRPA Fc fusion antigens to AHQ sensor and followed by exposure to 100 nM anti-SIRPA antibody Fab.
row,Binder,Kd
1,B1,0.676 nM
2,B2,0.537 nM
3,B3,0.504 nM
4,B4,0.441 nM
5,B5,1.06 nM
6,B6,0.31 nM
7,B7,1.41 nM
8,B8,0.711 nM
9,B9,0.742 nM
10,B10,0.505 nM
11,B11,0.573 nM
12,B12,2.14 nM
13,B13,2.3 nM
14,B14,2.61 nM
15,B15,2.78 nM
16,B16,3.03 nM

row,Binder,Kd
1,B17,0.371 nM
2,B18,0.952 nM
3,B19,1.84 nM
4,B20,1.92 nM
5,B21,0.341 nM
6,B22,0.339 nM
7,B23,0.396 nM
8,B24,0.379 nM
9,B25,0.415 nM
10,B26,0.378 nM
11,B27,0.412 nM
12,B28,0.365 nM
13,B29,0.862 nM
14,B30,1.06 nM
15,B31,1.04 nM
16,B32,0.566 nM

# Biological target: T2, human SIRPβ1 Fc fusion antigen (human, UniProt O00241 30-371)
# T2 construct: not shown: human IgG1 Fc
# T2 sequence (O00241 30-371 limits assumed): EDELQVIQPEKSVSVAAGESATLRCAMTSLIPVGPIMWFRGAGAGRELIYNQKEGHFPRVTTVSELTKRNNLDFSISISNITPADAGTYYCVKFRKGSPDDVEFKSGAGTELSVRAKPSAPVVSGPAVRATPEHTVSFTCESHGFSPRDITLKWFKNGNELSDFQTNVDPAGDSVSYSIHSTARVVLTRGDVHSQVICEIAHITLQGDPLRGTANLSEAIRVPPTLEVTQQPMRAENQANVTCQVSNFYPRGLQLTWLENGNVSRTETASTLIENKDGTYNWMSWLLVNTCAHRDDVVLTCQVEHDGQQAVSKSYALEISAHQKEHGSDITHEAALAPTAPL
# Assay: ForteBio IgG avid;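 further: ForteBio sensor-based avid binding of anti-SIRPA antibodies in IgG format, with the binding partner in solution at 100 nM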
Binder,Kd,binding result
B1,4.08 nM,
B2,3.13 nM,
B3,2.05 nM,
B4,3.94 nM,
B5,2.08 nM,
B6,1.36 nM,
B7,4.25 nM,
B8,2.59 nM,
B9,3.45 nM,
B10,2.82 nM,
B11,2.6 nM,
B12,13.1 nM,
B13,9.31 nM,
B14,,no binding (tested: 100 nM)
B15,,no binding (tested: 100 nM)
B16,,no binding (tested: 100 nM)

Binder,Kd,binding result
B17,4.67 nM,
B18,8.36 nM,
B19,14.2 nM,
B20,3.45 nM,
B21,,no binding (tested: 100 nM)
B22,12.4 nM,
B23,,no binding (tested: 100 nM)
B24,,no binding (tested: 100 nM)
B25,,no binding (tested: 100 nM)
B26,,no binding (tested: 100 nM)
B27,,no binding (tested: 100 nM)
B28,,no binding (tested: 100 nM)
B29,,no binding (tested: 100 nM)
B30,,no binding (tested: 100 nM)
B31,,no binding (tested: 100 nM)
B32,,no binding (tested: 100 nM)

# Biological target: T1, human SIRPA Fc fusion antigen
# Assay: ForteBio Fab monovalent
# Protocol: Briefly, ForteBio affinity measurements were performed by loading immunoglobulins (IgGs) on-line onto AHQ sensors. Sensors were equilibrated off-line in assay buffer for 30 min and then monitored on-line for 60 seconds for baseline establishment. For avid binding measurement, sensors with loaded IgGs were exposed to 100 nM antigen (human SIRPA or SIRPβ1 Fc fusion) for 3 min, afterwards they were transferred to assay buffer for 3 min for off-rate measurement. […] Monovalent binding measurements were obtained by loading human SIRPA Fc fusion antigens to AHQ sensor and followed by exposure to 100 nM anti-SIRPA antibody Fab.
# Additional monovalent measurements were made by loading biotinylated human SIRPA monomer to SA sensor followed by exposure to 100 nM Fab in solution. Kinetics data were fit using a 1:1 binding model in the data analysis software provided by ForteBio.
row,Binder,Kd
1,B33,27.7 nM
2,B34,8.92 nM
3,B35,131 nM
4,B36,81.5 nM
